These results are taken from patent US20190147972A1, “BIOMOLECULE DESIGN MODEL AND USES THEREOF” (University of Notre Dame du Lac, priority 2016, published 2019).

One assay concerns DMF5 TCR. In words: SPR binding of MART126(27L)-35 peptide variants/HLA-A2 to DMF5 TCR. To be noted: ELA peptide substitution vs native peptide, SPR steady state, 25° C. The protocol:
Briefly, the TCR a and b chains, the HLA-A2 heavy chain, and b2-microglobulin (b2m) were generated in Escherichia coli as inclusion bodies, which were isolated and denatured in 8 M urea. TCR a and b chains were diluted in TCR refolding buffer (50 mM Tris (pH 8), 2 mM EDTA, 2.5 M urea, 9.6 mM cysteamine, 5.5 mM cystamine, 0.2 mM PMSF) at a 1:1 ratio. HLA-A2 and b2m were diluted in MHC refolding buffer (100 mM Tris (pH 8), 2 mM EDTA, 400 mM L-arginine, 6.3 mM cysteamine, 3.7 mM cystamine, 0.2 mM PMSF) at a 1:1 ratio in the presence of excess peptide. TCR and pMHC complexes were incubated for 24 h at 4° C. Afterward, complexes were desalted by dialysis at 4° C. and room temperature respectively, then purified by anion exchange followed by size-exclusion chromatography. Refolded protein absorptions at 280 nm were measured spectroscopically and concentrations determined with appropriate extinction coefficients. Mutations in TCR a and b chains were generated by whole-plasmid mutagenesis and confirmed by sequencing. Peptides were synthesized and purified commercially.
Surface plasmon resonance: Surface plasmon resonance experiments were performed with a Biacore 3000 instrument using CMS sensor chips as previously described^15. In all studies, TCR was immobilized to the sensor chip via standard amine coupling and pMHC complex was injected as analyte. Studies were performed at 25° C. in 20 mM HEPES (pH 7.4), 150 mM NaCl, 0.005% Nonidet P-20. All studies were steady-state experiments measuring RU vs. concentration of injected analyte, and were performed with TCRs coupled onto the sensor chip at 400-2000 response units. Injected pMHC spanned a concentration range of 0.1-150 μM at flow rates of 5 μl/min. Data were processed with BioEvaluation 4.1 and fit using a 1:1 binding model utilizing MATLAB 2015b.
Next, eight MART126(27L)-35 peptide variants with a broad range of complex scores were selected for experimental testing with DMF5. A peptide was also examined with a non-standard sarcosine (N-methyl glycine) substituted for Gly6 of the peptide to help test the implications of treating structured water explicitly in the DMF5 interface as discussed above and shown in FIG. 5.
In general terms: In SPR one partner is held on a chip, and binding of the other changes the refractive index at the surface.

The target in another assay is MART126(27L)-35/HLA-A2 (UniProt Q16655). In words: SPR steady state (Biacore 3000), TCR immobilised, pMHC injected; relative to wild type.
The target in assay [1] is MART126(27L)-35 pE1A/HLA-A2 (UniProt Q16655). In words: SPR steady state (Biacore 3000), TCR immobilised, pMHC injected; relative to the unsubstituted ELA peptide.
The target of assay [2] is MART126(27L)-35 pE1F/HLA-A2 (UniProt Q16655). Described as above.
Assay [3] concerns the target MART126(27L)-35 pG6-Sarc/HLA-A2 (UniProt Q16655). Described as above.
The target of assay [4] is MART126(27L)-35 pE1Q/HLA-A2 (UniProt Q16655). The assay is described as above.
For assay [5], the target named is MART126(27L)-35 pE1D/HLA-A2 (UniProt Q16655). The description is as above.
For assay [6], the target named is MART126(27L)-35 pI5E/HLA-A2 (UniProt Q16655). Described as above.
The target of assay [7] is MART126(27L)-35 pT9A/HLA-A2 (UniProt Q16655). Described as above.
Assay [8] deals with MART126(27L)-35 pG6-Sarc/HLA-A2 (UniProt Q16655). In words: SPR steady state, TCR immobilised, pMHC injected.

In the case of “PE1Q: MART126(27L)-35 (ELA) peptide with E1Q substitution, presented by HLA-A2 (QLAGIGILTV; MART-1 26-35 peptide; UniProt Q16655 26-35, looked up, variant A27L E26Q)”, in the assay on DMF5 TCR, the “ΔΔG°” value was 4.18 kJ/mol.
For “pI5E: MART126(27L)-35 (ELA) peptide with I5E substitution, presented by HLA-A2 (ELAGEGILTV; MART-1 26-35 peptide; UniProt Q16655 26-35, looked up, variant A27L I30E)”, the “ΔΔG°” value in the assay on DMF5 TCR was 12.8 kJ/mol.
In the assay with MART126(27L)-35/HLA-A2, DMF5 TCR T54αI came in with a ΔΔG° of 1.38 kJ/mol.
Consider “pE1F: MART126(27L)-35 (ELA) peptide with E1F substitution, presented by HLA-A2 (FLAGIGILTV; MART-1 26-35 peptide; UniProt Q16655 26-35, looked up, variant A27L E26F)”, for which the “ΔΔG°” value in the assay with DMF5 TCR is 9.46 kJ/mol.
As for “pT9W: MART126(27L)-35 (ELA) peptide with T9W substitution, presented by HLA-A2 (ELAGIGILWV; MART-1 26-35 peptide; UniProt Q16655 26-35, looked up, variant A27L T34W)”, in the assay with DMF5 TCR, the “ΔΔG°” value is more than 13 kJ/mol.
Turning to “pE1D: MART126(27L)-35 (ELA) peptide with E1D substitution, presented by HLA-A2 (DLAGIGILTV; MART-1 26-35 peptide; UniProt Q16655 26-35, looked up, variant A27L E26D)”, in the assay with DMF5 TCR, the “ΔΔG°” value turned out to be 5.44 kJ/mol.
Consider DMF5 TCR (wild type, soluble), for which the ΔΔG° is 0.251 kJ/mol in assay [1]; 9.46 kJ/mol in assay [2]; -2.43 kJ/mol in assay [3]; 4.18 kJ/mol in assay [4]; 5.44 kJ/mol in assay [5]; 12.8 kJ/mol in assay [6]. Moreover, in assay [7], the ΔΔG° came to 6.69 kJ/mol. Further, in assay [8], the fold affinity enhancement over the unsubstituted peptide amounted to 3 fold.
